Assay results from paper PMC10020564, “Distinct inter-domain interactions of dimeric versus monomeric α-catenin link cell junctions to filaments” (Communications Biology, 2023).

B1: human α-catenin Δ1–81 (domain or fragment, UniProt P35221 82-906, looked up)
chain: ESQFLKEELVAAVEDVRKQGDLMKAAAGEFADDPCSSVKRGNMVRAARALLSAVTRLLILADMADVYKLLVQLKVVEDGILKLRNAGNEQDLGIQYKALKPEVDKLNIMAAKRQQELKDVGHRDQMAAARGILQKNVPILYTASQACLQHPDVAAYKANRDLIYKQLQQAVTGISNAAQATASDDASQHQGGGGGELAYALNNFDKQIIVDPLSFSEERFRPSLEERLESIISGAALMADSSCTRDDRRERIVAECNAVRQALQDLLSEYMGNAGRKERSDALNSAIDKMTKKTRDLRRQLRKAVMDHVSDSFLETNVPLLVLIEAAKNGNEKEVKEYAQVFREHANKLIEVANLACSISNNEEGVKLVRMSASQLEALCPQVINAALALAAKPQSKLAQENMDLFKEQWEKQVRVLTDAVDDITSIDDFLAVSENHILEDVNKCVIALQEKDVDGLDRTAGAIRGRAARVIHVVTSEMDNYEPGVYTEKVLEATKLLSNTVMPRFTEQVEAAVEALSSDPAQPMDENEFIDASRLVYDGIRDIRKAVLMIRTPEELDDSDFETEDFDVRSRTSVQTEDDQLIAGQSARAIMAQLPQEQKAKIAEQVASFQEEKSKLDAEVSKWDDSGNDIIVLAKQMCMIMMEMTDFTRGKGPLKNTSDVISAAKKIAEAGSRMDKLGRTIADHCPDSACKQDLLAYLQRIALYCHQLNICSKVKAEVQNLGGELVVSGVDSAMSLIQAAKNLMNAVVQTVKASYVASTKYQKSQGMASLNLPAVSWKMKAPEKKPLVKREKQDETQTKIKRASQKKHVNPVQALSEFKAMDSI
notes: also called human dimeric α-catenin Δ1–81; human monomeric α-catenin Δ1–81; source: E. coli BL21(DE3) (said of all α-catenin constructs)
B2: full-length human α-catenin (residues 1–906) (natural protein, UniProt P35221 1-906, looked up)
chain: MTAVHAGNINFKWDPKSLEIRTLAVERLLEPLVTQVTTLVNTNSKGPSNKKRGRSKKAHVLAASVEQATENFLEKGDKIAKESQFLKEELVAAVEDVRKQGDLMKAAAGEFADDPCSSVKRGNMVRAARALLSAVTRLLILADMADVYKLLVQLKVVEDGILKLRNAGNEQDLGIQYKALKPEVDKLNIMAAKRQQELKDVGHRDQMAAARGILQKNVPILYTASQACLQHPDVAAYKANRDLIYKQLQQAVTGISNAAQATASDDASQHQGGGGGELAYALNNFDKQIIVDPLSFSEERFRPSLEERLESIISGAALMADSSCTRDDRRERIVAECNAVRQALQDLLSEYMGNAGRKERSDALNSAIDKMTKKTRDLRRQLRKAVMDHVSDSFLETNVPLLVLIEAAKNGNEKEVKEYAQVFREHANKLIEVANLACSISNNEEGVKLVRMSASQLEALCPQVINAALALAAKPQSKLAQENMDLFKEQWEKQVRVLTDAVDDITSIDDFLAVSENHILEDVNKCVIALQEKDVDGLDRTAGAIRGRAARVIHVVTSEMDNYEPGVYTEKVLEATKLLSNTVMPRFTEQVEAAVEALSSDPAQPMDENEFIDASRLVYDGIRDIRKAVLMIRTPEELDDSDFETEDFDVRSRTSVQTEDDQLIAGQSARAIMAQLPQEQKAKIAEQVASFQEEKSKLDAEVSKWDDSGNDIIVLAKQMCMIMMEMTDFTRGKGPLKNTSDVISAAKKIAEAGSRMDKLGRTIADHCPDSACKQDLLAYLQRIALYCHQLNICSKVKAEVQNLGGELVVSGVDSAMSLIQAAKNLMNAVVQTVKASYVASTKYQKSQGMASLNLPAVSWKMKAPEKKPLVKREKQDETQTKIKRASQKKHVNPVQALSEFKAMDSI
notes: Cloned into pGEX-6P-1; residues of the PreScission site may remain at the N-terminus after cleavage; The same protein elutes as a monomer peak and a dimer peak, which were pooled separately; also called human monomeric α-catenin; human dimeric α-catenin; source: E. coli BL21(DE3), purified (GST Sepharose, PreScission cleavage, Superdex S200; monomer and dimer peaks pooled separately); not shown: …
B3: human α-catenin (residues 22–906) (domain or fragment, UniProt P35221 22-906, looked up)
chain: TLAVERLLEPLVTQVTTLVNTNSKGPSNKKRGRSKKAHVLAASVEQATENFLEKGDKIAKESQFLKEELVAAVEDVRKQGDLMKAAAGEFADDPCSSVKRGNMVRAARALLSAVTRLLILADMADVYKLLVQLKVVEDGILKLRNAGNEQDLGIQYKALKPEVDKLNIMAAKRQQELKDVGHRDQMAAARGILQKNVPILYTASQACLQHPDVAAYKANRDLIYKQLQQAVTGISNAAQATASDDASQHQGGGGGELAYALNNFDKQIIVDPLSFSEERFRPSLEERLESIISGAALMADSSCTRDDRRERIVAECNAVRQALQDLLSEYMGNAGRKERSDALNSAIDKMTKKTRDLRRQLRKAVMDHVSDSFLETNVPLLVLIEAAKNGNEKEVKEYAQVFREHANKLIEVANLACSISNNEEGVKLVRMSASQLEALCPQVINAALALAAKPQSKLAQENMDLFKEQWEKQVRVLTDAVDDITSIDDFLAVSENHILEDVNKCVIALQEKDVDGLDRTAGAIRGRAARVIHVVTSEMDNYEPGVYTEKVLEATKLLSNTVMPRFTEQVEAAVEALSSDPAQPMDENEFIDASRLVYDGIRDIRKAVLMIRTPEELDDSDFETEDFDVRSRTSVQTEDDQLIAGQSARAIMAQLPQEQKAKIAEQVASFQEEKSKLDAEVSKWDDSGNDIIVLAKQMCMIMMEMTDFTRGKGPLKNTSDVISAAKKIAEAGSRMDKLGRTIADHCPDSACKQDLLAYLQRIALYCHQLNICSKVKAEVQNLGGELVVSGVDSAMSLIQAAKNLMNAVVQTVKASYVASTKYQKSQGMASLNLPAVSWKMKAPEKKPLVKREKQDETQTKIKRASQKKHVNPVQALSEFKAMDSI
notes: Modified pET28 vector; By the printed forward primer the residues GPHM would remain before T22 after PreScission cleavage (surmise); The dimer was used for the complex with F-actin; in the map only residues 710–871 are ordered; also called Δ1–21 α-catenin; human dimeric α-catenin Δ1–21; source: E. coli BL21(DE3), purified (HisTrap, PreScission cleavage, reverse HisTrap, Superdex S200); not shown: …

Biological target: the molecule itself
Assay: SEC-MALS; separately pooled dimer peak of a size exclusion run; Superdex S200 10/300 GL, 20 mM Tris-HCl pH 8, 150 mM NaCl, 0.2 mM TCEP, 0.5 ml/min

Stoichiometry N, 2:
B1
B2
B3
